Measurements from the supplement of paper PMC10567573.

B1: SCNN1D (parent)
chain: RRPSPVLRHLELLDEFARENIDSL
B2: PTPLAD1 (parent)
chain: YINFRHLYKQRRRRYGQKKKKIH

Variants of: B1
Experiment: protein stability index of a GFP-peptide fusion (GPS, HEK-293T) (PSI 1-6); higher = more stable
Conditions: c terminus: a fixed tail appended
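Also: lentivirally expressed fusions sorted by FACS into six bins by GFP to DsRed ratio, PSI derived from sequencing read proportions per bin multiplied by bin number.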

Protein stability index, by site and new letter:
F16: R 4.28, S 4.57, N 3.88, H 3.77, Q 3.14, P 3.72, W 2.64, E 3.63, K 3.91, T 4.21, D 4.61, M 2.25, V 3.95, C 3.61, L 3.36, G 4.12, Y 3.09, I 2.84, A 2.61
L24: E 3.25, Q 3.23, W 2.06, K 3.29, V 2.67, M 2.4, Y 2.55, P 3.19, I 2.46, H 2.88, S 3.04, D 3.15, C 2.73, A 3.52, T 3.3, R 3.17, N 3.29, G 3.06, F 2.07
L13: W 3.19, R 3.6, Y 3.19, V 3.6, P 4.21, Q 3.78, T 4.13, S 4.26, N 4.16
E15: R 2.72, N 3.41, A 2.97, S 3.27, L 1.76, F 2.03, P 3.02, I 2.72, W 2.05, Q 2.95, G 3.34, C 2.94, M 2.18, K 2.82, V 2.29, H 2.92, T 2.92, D 3.21, Y 1.83
R18: K 3.67, M 2.98, F 3, E 3.12, Y 2.7, V 2.35, L 2.43, D 3.44, Q 2.84, S 3.26, T 3.16, I 2.44, H 3.17, P 4.25, W 1.73, G 3.6, A 2.37, N 2.42, C 2.48
D14: H 2.5, W 1.44, V 1.37, Y 2, K 1.8, N 2.74, P 2.92, F 1.42, G 2.83, I 1.78, Q 2.94, C 1.59, S 2.16, M 2.6, R 2.27, L 2.86, E 2.56, A 1.67, T 2.21
I21: M 2.89, N 2.81, D 3.36, A 3.04, V 2.87, R 2.96, P 4.41, F 2.74, L 2.95, T 2.98, Q 3.59, S 3.85, E 3.27, C 2.43, G 3.38, H 3.61, K 3.36, Y 2.34, W 1.87
S23: Y 2.46, C 2.5, G 3.33, L 2.72, R 3.44, T 2.74, H 2.7, M 2.56, K 3.56, I 2.26, N 2.94, W 1.32, E 2.92, D 2.57, F 1.74, A 2.07, Q 2.27, V 2.45, P 2.99
D22: V 2.03, A 2.97, L 1.55, W 1.68, E 2.99, N 3.12, H 2.87, I 2.15, G 2.41, C 1.7, P 2.22, T 2.18, Q 2.47, F 1.57, R 2.76, M 1.47, Y 1.8, S 2.42, K 2.97
E19: G 3.88, R 2.61, H 2.5, Q 2.68, K 2.74, Y 2.39, D 2.73, V 2.88, T 3.16, C 2.66, P 2.72, F 2.46, A 3.18, L 2.52, S 2.74, N 2.89, W 1.82, M 2.88, I 2.5
A17: R 2.94, K 3.98, H 3.74, T 3.62, Q 3.16, S 4.37, E 4.18, L 3.07, N 4.14, C 3.38, G 3.72, Y 2.9, V 2.94, D 4.43, W 3.03, F 2.24, P 3.48, M 2.92, I 2.46
N20: G 2.88, I 1.74, R 2.72, K 3.34, L 2.17, C 2.33, P 3.04, D 3.65, Y 2.07, S 2.36, H 1.85, M 1.77, E 1.88, T 1.93, Q 2.08, F 2.52, W 2.85, V 2.54, A 2.35

Variants of: B2
Experiment: as above
Conditions: c terminus: native

Protein stability index, by site and new letter:
Y15: V 2.14, G 2.14, Q 1.88, T 1.69, A 2.12, S 1.74, E 4.57, M 1.37, N 1.11, H 1.72
Q17: C 1.48, W 1.63
N3: Y 1.71, K 1.97, W 1.37, Q 1.29, P 2.09
K9: V 1.91, Y 2.6, W 2.45, D 3.3, L 1.55, R 3.03, C 1.83, E 2.03
L7: D 3.07, P 2.92, V 2.93
R13: K 1.45, P 3.64, E 2.09
R5: I 1.53, Y 2.37, H 1.8, P 2.49, A 2.93, W 1.55
R12: C 1.55, F 1.62, S 2.18, K 1.91, T 3.06, M 2.44
R14: F 2.16, I 1.6, N 2.15, L 2.34, T 1.22, H 1.96
I2: M 2
Q10: M 1.96, C 2.22, P 1.66, R 2.26, S 1.7
H23: W 2.25, E 1.04
K21: H 1.94, C 2.5, Y 1.35, I 2.14, V 1.6
F4: Q 2.77, S 3.2, D 3.02, R 2.96
R11: Y 2.61, P 2.84, C 1.58, D 1.39
Y1: V 2.1, C 1.59, P 1.93, H 2.9, R 1.35, T 2.25, W 2.96, L 1.79
G16: N 1.4, K 2.57, A 2.54, P 1.66, M 2.27, L 2.23
K20: C 1.83, N 1.89, T 1.99, S 1.69
I22: A 2.02, Q 2.44, V 1.41, C 1.86, L 2.67
K18: Y 2.39, Q 1.56, C 2.62, V 2.29, M 1.78, A 2.15, N 1.96, T 2.19
K19: W 2.02, T 1.96, I 2.54, M 2.31
Y8: I 1.56, H 2.31, D 3.25, G 2.03, P 2.81, T 1.76
H6: C 2.14, L 2.3, T 2.02, F 1.54, M 1.75
